B1: Fab clone 19 (Fab, V domains shown)
VH: QVKLLEESGGGLVRLAGSLRLSCAASGTTLSGYTMHWVRQAPGKGLEWVSSITGGSNFINYSDSVKGRFTISRDNAKNSLYLQMNSLTAEDTAVYYCATAPIAPPYFDHWGQGTLVTVSS
VL: ELTQSPSSLSASVGDRVTITCRATQSVSNFLNWYQQKPGEAPTLLIYDASTSQSGVPSRFSGSGSGMDFSLTISSLQPEDLAMYYCQASINTPLFGGGTRIDMR
notes: Human IgG1 kappa Fab made as soluble Fab in E. coli; Variable domains are identical to clone 13; also called Fab 19; RSV Fab 19
B2: Fab clone 13 (Fab, V domains shown)
VH: QVKLLEESGGGLVRLAGSLRLSCAASGTTLSGYTMHWVRQAPGKGLEWVSSITGGSNFINYSDSVKGRFTISRDNAKNSLYLQMNSLTAEDTAVYYCATAPIAPPYFDHWGQGTLVTVSS
VL: ELTQSPSSLSASVGDRVTITCRATQSVSNFLNWYQQKPGEAPTLLIYDASTSQSGVPSRFSGSGSGMDFSLTISSLQPEDLAMYYCQASINTPLFGGGTRIDMR
notes: Human IgG1 kappa Fab made as soluble Fab in E. coli; Variable domains are identical to clone 19; also called Fab 13; rsv 13H/13L
B3: Fab clone 11 (Fab, V domains shown)
VH: VKLLEQSGGGLVQPGGSLRLSCAVSGVTFSAYAMSWVRQAPGKGLEWVSGISGSGDSTDYADSVKGRLTISRDNSKNTLYLQMNSLRAEDTAIYYCASHLPDYWNLDYTRFFYYMDVWGKGTTVTVSS
VL: ELTQSPGTLSLSPGERATLSCRATQSISSNYLAWYQQRPGQAPRLLIYGASNRATDIPDRFSGSGSGTDFTLTISRLEPEDFAMYYCQQYDISPYTFGQGTKLEIK
notes: Human IgG1 kappa Fab from a pComb3 phage library, made as soluble Fab in E. coli; also called Fab 11; rsv 11H/11L

Assays:
[1] = biological target: RSV (subgroup A) F glycoprotein (respiratory syncytial virus subgroup A …, UniProt P03420 26-574); assay: cell-based or functional assay
RSV (subgroup A) F glycoprotein, sequence (P03420 26-574): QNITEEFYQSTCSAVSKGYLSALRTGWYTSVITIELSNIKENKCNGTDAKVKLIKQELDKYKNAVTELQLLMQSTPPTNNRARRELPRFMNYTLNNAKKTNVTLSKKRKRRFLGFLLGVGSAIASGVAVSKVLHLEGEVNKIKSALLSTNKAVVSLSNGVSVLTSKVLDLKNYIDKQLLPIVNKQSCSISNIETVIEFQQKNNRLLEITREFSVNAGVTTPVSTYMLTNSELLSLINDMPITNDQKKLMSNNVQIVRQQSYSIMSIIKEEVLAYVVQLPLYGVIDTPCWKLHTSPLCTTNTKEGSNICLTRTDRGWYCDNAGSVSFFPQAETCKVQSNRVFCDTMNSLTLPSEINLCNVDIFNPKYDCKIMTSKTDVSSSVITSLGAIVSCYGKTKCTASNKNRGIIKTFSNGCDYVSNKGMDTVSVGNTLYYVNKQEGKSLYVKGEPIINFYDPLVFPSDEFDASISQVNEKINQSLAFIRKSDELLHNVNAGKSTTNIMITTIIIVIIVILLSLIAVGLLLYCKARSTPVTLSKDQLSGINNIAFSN

[2] = biological target: T1, baculovirus-expressed FG fusion glycoprotein (respiratory syncytial virus, UniProt P03420 26-489; P03423 97-279); assay: inhibition ELISA, free FG against coated FG
T1 construct: also called RSV FG glycoprotein; recombinant FG glycoprotein
T1 sequence (P03420 26-489, tags or fused parts left off): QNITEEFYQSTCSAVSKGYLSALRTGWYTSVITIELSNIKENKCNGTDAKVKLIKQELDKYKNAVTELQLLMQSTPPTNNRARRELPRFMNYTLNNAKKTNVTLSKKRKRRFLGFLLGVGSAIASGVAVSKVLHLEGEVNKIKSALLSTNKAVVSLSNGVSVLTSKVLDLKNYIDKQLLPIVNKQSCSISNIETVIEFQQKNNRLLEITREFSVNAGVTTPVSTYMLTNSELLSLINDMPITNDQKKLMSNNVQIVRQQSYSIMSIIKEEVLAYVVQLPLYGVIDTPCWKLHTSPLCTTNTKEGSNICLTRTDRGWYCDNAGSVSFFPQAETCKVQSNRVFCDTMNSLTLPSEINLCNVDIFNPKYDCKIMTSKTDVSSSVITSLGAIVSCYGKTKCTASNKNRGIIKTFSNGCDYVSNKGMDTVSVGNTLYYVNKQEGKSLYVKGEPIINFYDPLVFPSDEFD

Binder | Concentration of Fab Needed for 60% Plaque Reduction (µg/ml), RSV; purified from lysate [1] [µg/mL] | Maximum Neutralization of RSV (Subgroup A); purified from lysate [1] [%] | Ka [2] [M⁻¹]
B1 | 0.4 | 100 | ~1e+08
B2 | 0.2 | 98 | ~1e+08
B3 | 1.8 | 88 | ~1e+08
